In article PMC4525180 (Nature communications, 2015):

B1: Rad55–Rad57 complex (complex, S. cerevisiae)
chain 1: MSLGIPLSQLIVESPKPLSSGITGLDEILNLGFQARSIYEIFGPPGIGKTNFGIQLVCNSLEGIQQSEINDDKILWIETFQEMPINILRERFQKFKIVEENVKRVRITKFGQLLYFFQNLFKLSQSVRYKLVIIDGFSQLVCDHLCTLSKRGGGMIDKTIHELKCRHLILIFTVMTKYTHSTGSTIIVLNDCMNTAFQSNEFESLEEYYEILDDGSNFFVNSNNERRKNNVHILKSALVANIAMGSKDSTWEVFLRDRIGLFRDWNEQVDETVFVKSKRVKASSSQSNEGCTTIKEMRINKRNFENLRIAIVFNLHGEDRKREGRNLKRSRSSDDRNYIVKFDFDKATGQLRDIIDLKPDTANIASFPTLSTSSSSCSQVFNNIDSNDNPLPNAEGKEEIIYDSEG
chain 2: MPRALSIKFDNTYMDLYDELPESKLLYDEEFSYLLDAVRQNGVCVVDFLTLTPKELARLIQRSINEVFRFQQLLVHEYNEKYLEICEKNSISPDNGPECFTTADVAMDELLGGGIFTHGITEIFGESSTGKSQLLMQLALSVQLSEPAGGLGGKCVYITTEGDLPTQRLESMLSSRPAYEKLGITQSNIFTVSCNDLINQEHIINVQLPILLERSKGSIKLVIIDSISHHLRVELQNKSFRESQENKNYLDRMAEKLQILAHDYSLSVVVANQVGDKPLANSPVAHRTYVTDYDYQLGWLVGWKNSTILYRQMNSLLGASSNNDEILSDDEDYMLIERVMSTVNDRNYDFFSKKKPPIIENKTVERNSSSPISRQSKKRKFDYRVPNLGLTWSNHVSTRILLQKSFKASTIIQRGEAHLYKGGDSASFWQVKRTMKVVYSTFAKPGQIAYQITKRGIETA

Experiments:
Conditions in all cases: both partners purified
GST-tagged Rad52 = GST-tagged Rad52 (S. cerevisiae, UniProt P06778 1-471); experiment: pull-down; GST–Rad52 with one partner, captured on glutathione resin; buffer with 100 mM KCl, no imidazole, 4 °C; anti-FLAG immunoblot (FLAG on Rad57 and Psy3)
Chain of GST-tagged Rad52 (P06778 whole entry): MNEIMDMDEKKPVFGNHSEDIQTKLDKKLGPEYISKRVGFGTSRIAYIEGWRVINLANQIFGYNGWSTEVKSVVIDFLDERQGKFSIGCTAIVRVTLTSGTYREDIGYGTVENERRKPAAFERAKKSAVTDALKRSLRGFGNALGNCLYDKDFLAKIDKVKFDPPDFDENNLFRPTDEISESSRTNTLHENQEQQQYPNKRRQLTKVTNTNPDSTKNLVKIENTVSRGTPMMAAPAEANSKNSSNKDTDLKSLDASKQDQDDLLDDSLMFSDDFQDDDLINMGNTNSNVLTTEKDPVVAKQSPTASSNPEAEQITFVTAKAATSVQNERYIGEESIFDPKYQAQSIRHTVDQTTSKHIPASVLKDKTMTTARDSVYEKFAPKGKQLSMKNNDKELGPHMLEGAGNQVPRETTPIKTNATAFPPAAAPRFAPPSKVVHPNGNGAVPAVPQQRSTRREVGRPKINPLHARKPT

Rad55–Rad57 complex [1] = biological target: B1; experiment: pull-down; His-tagged Rad55–Rad57 (0.5 μg) with Csm2–Psy3 (0.5 μg), captured on Ni-NTA resin through (His)6 on Rad55; buffer C (20 mM MOPS pH 7.2, 150 mM KCl, 1 mM ATP, 2 mM MgCl2, 15 mM imidazole), 4 °C, washes with 200 mM KCl; SDS-PAGE, Coomassie
Rad55–Rad57 complex [2] = biological target: B1; experiment: pull-down; Shu complex with Rad55–Rad57; set-up only in Supplementary Fig. 2a
Rad55–Rad57 complex [3] = biological target: B1; experiment: pull-down; pull-down with Rad51; set-up only in Supplementary Fig. 2b; also with Csm2–Psy3 added to Rad55–Rad57 and Rad51

Binder: B1
- binding result (GST-tagged Rad52): binds

B2: Csm2–Psy3 heterodimer (complex, S. cerevisiae)
chain 1: MEYEDLELITIWPSPTKNKLCQFIKQNLSKEHVVTQLFFIDATSSFPLSQFQKLVPPTLPENVRIYENIRINTCLDLEELSAITVKLLQILSMNKINAQRGTEDAVTEPLKIILYINGLEVMFRNSQFKSSPQRSHELLRDTLLKLRVMGNDENENASIRTLLEFPKEQLLDYYLKKNNNTRTSSVRSKRRRIKNGDSLAEYIWKYYADSLFE
chain 2: MEVLKNIRIYPLSNFITSTKNYINLPNELRNLISEEQESKLGFLHIIESDFKPSVALQKLVNCTTGDEKILIIDIVSIWSQQKQRQHGAIYMNSLSCINITGLIVFLELLYDSPMDALRRCQVDNFNFQLRGIVIDNLSFLNFESDKNYDVINLSKFEKLFKILRKLREFLGCWIITKSFPTDFYNGIENTLVDKWSIKRKSGVTLYPTKLPDSYMKGMDLIIYREVVDGRPQYRRIAALEE
- binding result (Rad55–Rad57 complex [1]): binds

B3: Shu complex (Csm2–Psy3–Shu1–Shu2) (complex, S. cerevisiae)
chain 1: MEYEDLELITIWPSPTKNKLCQFIKQNLSKEHVVTQLFFIDATSSFPLSQFQKLVPPTLPENVRIYENIRINTCLDLEELSAITVKLLQILSMNKINAQRGTEDAVTEPLKIILYINGLEVMFRNSQFKSSPQRSHELLRDTLLKLRVMGNDENENASIRTLLEFPKEQLLDYYLKKNNNTRTSSVRSKRRRIKNGDSLAEYIWKYYADSLFE
chain 2: MEVLKNIRIYPLSNFITSTKNYINLPNELRNLISEEQESKLGFLHIIESDFKPSVALQKLVNCTTGDEKILIIDIVSIWSQQKQRQHGAIYMNSLSCINITGLIVFLELLYDSPMDALRRCQVDNFNFQLRGIVIDNLSFLNFESDKNYDVINLSKFEKLFKILRKLREFLGCWIITKSFPTDFYNGIENTLVDKWSIKRKSGVTLYPTKLPDSYMKGMDLIIYREVVDGRPQYRRIAALEE
chain 3: MQFEERLQQLVESDWSLDQSSPNVLVIVLGDTARKYVELGGLKEHVTTNTVAGHVASRERVSVVFLGRVKYLYMYLTRMQAQANGPQYSNVLVYGLWDLTATQDGPQQLRLLSLVLRQCLSLPSKVEFYPEPPSSSVPARLLRFWDHIIR
chain 4: MSKDVIEYSKLFAKLVNTNDDTKLDDTIASFLYYMFPRELFIRAISLLESSDMFIYILDRVHNKEGNEHTSLIDVLVDEFYKGSSNSLLEYRLIVKDTNDGAPPILVDIAHWFCSCEEFCKYFHEALEKTDEKEELHDVLINEVDDHLQFSDDRFAQLDPHSLSKQWYFKFDKVCCSHLLAFSILLRSSINVLKFFTVNSNKVFVIAIDNIDEWLNLHINIVE
- binding result (Rad55–Rad57 complex [2]): binds

B4: Rad51 (natural protein, S. cerevisiae, UniProt P25454 1-400, looked up)
chain: MSQVQEQHISESQLQYGNGSLMSTVPADLSQSVVDGNGNGSSEDIEATNGSGDGGGLQEQAEAQGEMEDEAYDEAALGSFVPIEKLQVNGITMADVKKLRESGLHTAEAVAYAPRKDLLEIKGISEAKADKLLNEAARLVPMGFVTAADFHMRRSELICLTTGSKNLDTLLGGGVETGSITELFGEFRTGKSQLCHTLAVTCQIPLDIGGGEGKCLYIDTEGTFRPVRLVSIAQRFGLDPDDALNNVAYARAYNADHQLRLLDAAAQMMSESRFSLIVVDSVMALYRTDFSGRGELSARQMHLAKFMRALQRLADQFGVAVVVTNQVVAQVDGGMAFNPDPKKPIGGNIMAHSSTTRLGFKKGKGCQRLCKVVDSPCLPEAECVFAIYEDGVGDPREEDE
- binding result (Rad55–Rad57 complex [3]): binds
